The target of test [1] is T1, recombinant human apolipoprotein E4, full length (human, UniProt P02649 19-317).
T1 construct: Recombinant protein in ELISA; expressed in transfected Neuro-2a or C6 cells for western blot and cell staining; also called apoE4; apoE4(1-299)
Kind of test: inhibition ELISA; apoE preincubated with 3H1 IgG, added to Aβ1-42-coated wells. As to the method: ApoE and Aβ binding assay. Aβ₁₋₄₂ (Biopeptides) was used to coat the surface of a 96-well plate at 330 ng/well and ELISA was performed essentially as described above. […] Subsequent detection of apoE bound with Aβ was performed with polyclonal anti-apoE, as stated above.
FIGS. 6A and 6B. […] After washing, the binding of apoE to Aβ was detected with polyclonal anti-apoE in an ELISA. […] After incubation, the mixture was added to Aβ₁₋₄₂-coated wells, and the binding of apoE to Aβ was detected with polyclonal anti-apoE after washing. All experiments were performed in triplicate. Values are mean±SD. OD, optical density.

Test [2] concerns the target T2, N-terminal 22-kDa fragment of apoE3 (aa 1-191) (human, UniProt P02649 19-209).
T2 construct: Range 1-191 is in apoE (299-residue) numbering
Briefly: ELISA on coated fragment. As to the method:
(§1) ApoE ELISA. […] Wells were washed several times with wash buffer (PBS containing 0.1% bovine serum albumin (BSA)) and blocked for 1 h with 4% BSA in PBS. All incubations were performed at room temperature. […] Secondary antibodies against goat or mouse IgG labeled with horse radish peroxidase (HRP) diluted in blocking buffer were added to the wells after several washes and incubated for 1 h. […] substrate (Thermo-Pierce) was used to visualize the amount of bound secondary antibody at 450 nm on a SpectraMax190 plate reader (Molecular Devices) using Softmax Pro software for data collection.
(§2) A, A schematic of different functional domains of human apoE. […] All experiments were performed in triplicate. Values are mean±SD. OD, optical density.

Test [3] has as its target T3, N-terminal 22-kDa fragment of apoE4 (aa 1-191) (human, UniProt P02649 19-209).
T3 construct: Range 1-191 is in apoE (299-residue) numbering
T3 chain: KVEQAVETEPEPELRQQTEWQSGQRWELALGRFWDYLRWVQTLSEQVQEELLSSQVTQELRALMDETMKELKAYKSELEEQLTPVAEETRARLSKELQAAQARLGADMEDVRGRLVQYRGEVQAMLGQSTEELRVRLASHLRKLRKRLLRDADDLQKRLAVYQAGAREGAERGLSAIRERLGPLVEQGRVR
Kind of test: ELISA on coated fragment. As to the method:
as §1, §2
Background: In an ELISA, binding on a coated surface is turned into a signal by an enzyme label.

Test [4] concerns the target T4, green fluorescent protein-apoE(231-272) (human, UniProt P02649 249-290, not fully specified).
T4 construct: Expressed in transiently transfected Neuro-2a cells; not shown: green fluorescent protein tag
T4 chain: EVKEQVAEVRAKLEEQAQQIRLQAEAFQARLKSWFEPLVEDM
Briefly: western blot, transfected Neuro-2a cells. On the procedure:
(§3) Cell culture, transfection, and western blotting. Mouse neuroblastoma (Neuro-2a) and astrocytic (C6) cells (American Type Culture Collection, Manassas, Va.) maintained at 37° C. in MEM containing 10% fetal bovine serum (FBS) were transiently transfected with different apoE cDNA constructs using Lipofectamine 2000 (Invitrogen) (Huang et al., 2001). Neuro-2a cells expressing different forms of apoE were collected in a low-detergent lysis buffer, separated by sodium dodecyl sulfate-polyacrylamide gel electrophoresis (SDS-PAGE), and immunoblotted for apoE with polyclonal and monoclonal antibodies, as described (Huang et al., 2001).

Another test deals with T5, apoE(1-260) (human, UniProt P02649 19-278).
T5 construct: Expressed in transiently transfected Neuro-2a cells; also called apoE4(1-260)
Kind of test: western blot, transfected Neuro-2a cells. On the procedure:
as §3
(In general: A western blot detects proteins with antibodies after separation by electrophoresis.)

Another test has as its target T6, apoE(1-240) (human, UniProt P02649 19-258).
T6 construct: If 1-244 is right the range is 19-262
Briefly: western blot, transfected Neuro-2a cells. On the procedure: as §3

Test [5] deals with T1, recombinant human apolipoprotein E4, …. Briefly: ELISA; apoE coated (50 ng/well), 3H1 as primary antibody. As to the method: Secondary antibodies against goat or mouse IgG labeled with horse radish peroxidase (HRP) diluted in blocking buffer were added to the wells after several washes and incubated for 1 h. […] substrate (Thermo-Pierce) was used to visualize the amount of bound secondary antibody at 450 nm on a SpectraMax190 plate reader (Molecular Devices) using Softmax Pro software for data collection.
as §2

In test [6] the target is T7, DMPC-lipidated apoE3 (DMPC:apoE=4:1) (human, UniProt P02649 19-317).
T7 construct: Same protein as m3, in complex with dimyristoyl phosphatidylcholine (not covalent)
Briefly: ELISA; lipid-free or DMPC-lipidated apoE coated (50 ng protein/well). As to the method: (§4) Preparation of apoE and DMPC complex. Dimyristoyl phosphatidylcholine (DMPC) (Avanti Polar Lipids, Alabaster, Ala.) was used at a concentration of 20 mg/ml dissolved into phosphate-buffered saline (PBS). DMPC solution was sonicated for 6 min per cycle until the solution became clear and centrifuged at 14,000 rpm for 2 min to pellet debris. ApoE was then added to obtain various final stock concentrations and allowed to incubate at 23.7° C. overnight before use in enzyme-linked immunosorbent assay (ELISA) experiments.
as §1
(§5) All experiments were performed in triplicate. Values are mean±SD. OD, optical density.

Test [7] deals with T8, DMPC-lipidated apoE4 (DMPC:apoE=4:1) (human, UniProt P02649 19-317).
T8 construct: Same protein as m2, in complex with dimyristoyl phosphatidylcholine (not covalent)
The test is described as above. On the procedure: as §4, §1, §5

B1: apoE-specific monoclonal antibody 3H1 (antibody, V domains shown)
VH: EVQLVESGGGLVKPGGSLKLSCAASGFTFSSYAMSWVRQTPEKRLEWVATISSGGSYTYYPDSVKGRFTISRDNAKNTLYLQMSSLRSEDTAMYYCARQFYYYGGSYDYFDYWGQGTTLTVS
VL: DIVLTQSPATLSVTPGDSVSLACRASQSISNNLHWYQQKSHESPRLLIKYAYQSISGIPSRFSGSGSGTDFTLSINSVETEDFGMYFCQQSNSWPLTFGVGTKLEIKR
notes: Mouse monoclonal IgG (detected with anti-mouse IgG; used as purified 3H1 IgG); also called 3H1 IgG; purified 3H1 IgG
For the molecule B1, the “percent lower IC50 than for apoE3” value in [1] is roughly 90%. The binding result (in test [2]; in [3]; in test [4]; with apoE(1-260); with apoE(1-240)) was “no binding” in each case. Besides, the “fold reactivity against apoE3” value in test [5] was found to be 9 fold. In test [6], the “fold increase of reactivity against lipid-free apoE3” value was roughly 120 fold. In test [7], the “fold increase of reactivity against lipid-free apoE4” value is roughly 20 fold.

Values taken from patent US20130017251A1 (J DAVID GLADSTONE INSTITUTES, published 2013).
